# Measured values reported in paper PMC7187929 (Biochimica et biophysica acta. Bioenergetics, 2017).
# Columns and labels:
# [1] = target: HtSH (soluble NAD+-reducing [NiFe]-hydrogenase, HoxFUYH) (Hydrogenophilus thermoluteolus, UniProt A0A077L6X8); assay: fluorometric FMN determination in purified protein; assay type: binding; settings: bound cofactor content of purified enzyme
# [2] = target: HoxFU module of HtSH (Hydrogenophilus thermoluteolus TH-1T) (Hydrogenophilus thermoluteolus TH-1T); assay: co-purification
# purified protein [3] = substrate: NC(=O)c1ccc[n+]([C@@H]2O[C@H](COP(=O)(O)OP(=O)(O)OC[C@H]3O[C@@H](n4cnc5c(N)ncnc54)[C@H](O)[C@@H]3O)[C@@H](O)[C@H]2O)c1; assay: purified protein; settings: H2 as electron donor, 50 °C, kcat at pH 6.5
# purified protein [4] = substrate: NC(=O)C1=CN([C@@H]2O[C@H](COP(=O)(O)OP(=O)(O)OC[C@H]3O[C@@H](n4cnc5c(N)ncnc54)[C@H](O)[C@@H]3O)[C@@H](O)[C@H]2O)C=CC1; assay: purified protein; settings: benzyl viologen as electron acceptor, 50 °C
# Chain of HtSH (soluble NAD+-reducing [NiFe]-hydrogenase, HoxFUYH) (A0A077L885 1-242 partner, one chain of several): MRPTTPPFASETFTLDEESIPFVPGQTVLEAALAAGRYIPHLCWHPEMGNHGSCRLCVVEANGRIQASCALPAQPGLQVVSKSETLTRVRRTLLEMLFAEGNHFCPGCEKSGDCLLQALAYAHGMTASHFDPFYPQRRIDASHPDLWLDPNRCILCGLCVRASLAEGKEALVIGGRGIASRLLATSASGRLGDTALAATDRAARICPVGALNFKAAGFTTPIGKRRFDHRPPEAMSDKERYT
# Chain of HtSH (soluble NAD+-reducing [NiFe]-hydrogenase, HoxFUYH) (A0A077L7R5 1-189 partner, one chain of several): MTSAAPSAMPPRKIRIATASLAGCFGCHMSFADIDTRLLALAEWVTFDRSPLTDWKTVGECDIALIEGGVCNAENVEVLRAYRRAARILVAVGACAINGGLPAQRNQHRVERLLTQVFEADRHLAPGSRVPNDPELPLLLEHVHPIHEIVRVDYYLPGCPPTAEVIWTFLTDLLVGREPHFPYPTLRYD
# Chain of HtSH (soluble NAD+-reducing [NiFe]-hydrogenase, HoxFUYH) (A0A077LAI5 1-468 partner, one chain of several): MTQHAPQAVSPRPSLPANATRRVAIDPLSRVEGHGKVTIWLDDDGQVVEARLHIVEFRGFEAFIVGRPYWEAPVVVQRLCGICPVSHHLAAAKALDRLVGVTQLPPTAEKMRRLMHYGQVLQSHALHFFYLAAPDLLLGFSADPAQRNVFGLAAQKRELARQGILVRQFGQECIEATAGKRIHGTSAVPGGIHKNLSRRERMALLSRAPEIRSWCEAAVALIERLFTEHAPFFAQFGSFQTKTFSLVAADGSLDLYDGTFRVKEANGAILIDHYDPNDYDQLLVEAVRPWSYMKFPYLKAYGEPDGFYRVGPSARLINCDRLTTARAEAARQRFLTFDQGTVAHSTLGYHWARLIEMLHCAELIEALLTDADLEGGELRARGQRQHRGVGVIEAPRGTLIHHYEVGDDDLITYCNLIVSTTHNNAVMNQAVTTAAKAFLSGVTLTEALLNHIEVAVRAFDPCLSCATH
molecule,measurement,setting,value
Cc1cc2nc3c(=O)[nH]c(=O)nc-3n(C[C@H](O)[C@H](O)[C@H](O)COP(=O)(O)O)c2cc1C [FMN],FMN per SH tetramer,[1],1.07 mol/mol
HoxYH module of HtSH (Hydrogenophilus thermoluteolus TH-1T) (from UniProt A0A077L7R5 1-189) (complex),stoichiometry N,[2],1
"HtSH (soluble NAD+-reducing [NiFe]-hydrogenase, HoxFUYH) (Hydrogenophilus thermoluteolus) (protein) MTTERQRTAPGLLAALHQARSRFGRPLDAQALAELSTAFSLPPGEIAATASFYHFFQTPPARYQIHFVDHVVDHHAGVAALCNHLCAAFAIQPGQRTADARLFVGWTACAGLSDQAPAALINGRPMPRLDAARIDALIEKIQAQIPMDQWPTEWFAVTNAIHRHGPLLTWLDTTPAEAVFEHPTAHDPDAILQAVTDAGLRGRGGAGFPTATKWRFCRENADPERFLICNADEGEPGTFKDRVLLTRYPEHLFAGMILAARAIGADKAILYLRYEYQYLLPQLEAARERIASAQATVPQAERVTLEIALGAGAYVCGEESALIESLEGKPGRPRVRPPYPVTQGYLGHPTVVNNVETLVAVAAIVGNGAAWWRALGTPDSSGPKLFCVSGDVAQPGLYEFPYGVALGDVVTAARPLGTRYAVQVSGPSGTLLPATPEQLARPLAFEALPCNGTVMVFDVRRDPVAIVHHFARFFAHESCGFCTPCRVGTQLIAKTFEKIAAGYATRFDLERLAPALEAMRLASNCGFGLSAGNPVRDLIAHFRQQLEAQLQPHDFIPAFSLDAELAATRRLTGRDDPHAHLAQFEQPEVTR",Km,purified protein [3],469 µM
same,Km,purified protein [4],1200 µM
